Peptide text beside a SMILES is read from it.
Tests used:
OF-1 mice = assay: Toxicity/procoagulant activity after intravenous injection; assay type: in vivo; details: intravenous administration; dose levels as low as
Description: N-D-Ala-D-Leu-D-Ala-D-Leu-DNR was injected in the lateral tail vein of OF-1 mice at different dose levels in order to determine the minimal dose that induces acute toxicity and kills the animals in less than an hour following the injection. Animals were injected with this dose level and sacrificed befor death resulting from the injection of the conjugate occurs. Organs and tissues were collected, fixed and prepared for histopathology.

enzyme X = details: cited from earlier work
tumor-bearing mice = assay: Tissue distribution studies in tumor-bearing mice; assay type: in vivo; details: i.v., plasma and tissues, RP-HPLC
Description: Mice bearing the same tumor types used for efficacy studies were used. They were injected i.v. with the prodrug, and anesthetized at selected time points. Plasma and tissues (tumor, liver, kidney, spleen, heart, lung and skeletal muscle) were recovered, snap frozen in liquid nitrogen and stored at −80° C. The prodrug and its metabolites were then extracted and quantified by RP-HPLC with fluorescence detection.

[1] = assay type: in vitro ADME, human
Description: The stability of this prodrug in whole human blood was determined, and its activation into the DNR-D-tetrapeptide (or any other positively charged derivative) was checked after incubation in the presence of human cancer cells conditioned media. Breast (MCF-7, MDA-MB-231), colon (LS-174-T), prostate (LNCaP) and lung (COR-L23, NCl-H69) cancer cell lines were used. Metabolites were analyzed by reverse phase-high pressure liquid chromatography (RP-HPLC), and fluorescence detection was used to identify and quantify the DNR derivatives generated over time. […] This particular prodrug is suitable for the in vivo validation of the concept.

[2] = Test of polycationic polymers as procoagulant; details: commercially available polymer
Description: An alternative to aggregation inducers to form the positively charged ‘particles’ responsible for coagulation is to use polymers such as poly-Lys. […] POIY-D-Lys of different size derivatized with D-amino acids, dipeptides, tripeptides or tetrapeptides on their terminal and side chain free amino groups were prepared (FIG. 5). Their toxicity and procoagulant activities were compared, and interesting candidates were used for the preparation of prodrugs (FIG. 5). N-succinyl-[…]-Ala-L-Leu-L-Ala-L-Leu or PEG-Ala-Leu-Ala-Leu prodrugs were prepared and compared in terms of efficacy and toxicity to the prodrugs based on aggregation inducers as described above. Alternatively, tests were performed using poly-D-Arg.

COc1cccc2c1C(=O)c1c(O)c3c(c(O)c1C2=O)C[C@@](O)(C(=O)CO)C[C@@H]3O[C@H]1C[C@H](NC(=O)[C@@H](CC(C)C)NC(=O)[C@@H](C)NC(=O)[C@@H](CC(C)C)NC(=O)[C@@H](C)N)[C@H](O)[C@H](C)O1 [N-D-Ala-D-Leu-D-Ala-D-Leu-doxorubicin] (HELM PEPTIDE1{[dA].[dL].[dA].[dL].[COc1cccc2c1C(=O)c1c(O)c3c(c(O)c1C2=O)C[C@@](O)(C(=O)CO)C[C@@H]3O[C@H]1C[C@H](N[*:1])[C@H](O)[C@H](C)O1]}$$$$V2.0; N-terminus and C-terminus assumed)
dose level inducing disseminated intravascular blood clotting (OF-1 mice): 34.5 µmol/kg

N-succinyl-[…]-Ala-L-Leu-L-Ala-L-Leu
substrate quality for enzyme X (enzyme X): optimal substrate

COc1cccc2c1C(=O)c1c(O)c3c(c(O)c1C2=O)C[C@@](O)(C(C)=O)C[C@@H]3O[C@H]1C[C@H](NC(=O)[C@@H](CC(C)C)NC(=O)[C@@H](C)NC(=O)[C@@H](CC(C)C)NC(=O)[C@@H](C)N)[C@H](O)[C@H](C)O1 [N-D-Ala-D-Leu-D-Ala-D-Leu-daunorubicin, N-D-Ala-D-Leu-D-Ala-D-Leu-DNR] (HELM PEPTIDE1{[dA].[dL].[dA].[dL].[COc1cccc2c1C(=O)c1c(O)c3c(c(O)c1C2=O)C[C@@](O)(C(C)=O)C[C@@H]3O[C@H]1C[C@H](N[*:1])[C@H](O)[C@H](C)O1]}$$$$V2.0)
dose level inducing disseminated intravascular blood clotting (OF-1 mice): 34.5 µmol/kg

N-mPEG350-[…]-Ala-L-Leu-L-Ala-L-Leu-D-Ala-D-Leu-D-Ala-D-Leu-DNR
tissue distribution: site of metabolite generation (tumor-bearing mice): generation of a positively-charged procoagulant metabolite specifically within the tumor
metabolite formed upon incubation in cancer cells conditioned media [1]: yielded the positively-charged N-L-Leu-D-Ala-D-Leu-D-Ala-D-Leu-DNR derivative
stability in whole human blood [1]: relatively stable

Poly-D-Lys
test as procoagulant polymer [2]: positively tested

— patent US20040097586A1, “Anti-tumor compounds” (priority 2001, published 2004)
